Reference: IntAct's records for PubMed 21217698

B1: DnaJ homolog subfamily B member 11 (Mus musculus), Q99KV1 (parent)
chain: MAPQNLSTFCLLLLYLIGTVIAGRDFYKILGVPRSASIKDIKKAYRKLALQLHPDRNPDDPQAQEKFQDLGAAYEVLSDSEKRKQYDTYGEEGLKDGHQSSHGDIFSHFFGDFGFMFGGTPRQQDRNIPRGSDIIVDLEVTLEEVYAGNFVEVVRNKPVARQAPGKRKCNCRQEMRTTQLGPGRFQMTQEVVCDECPNVKLVNEERTLEVEIEPGVRDGMEYPFIGEGEPHVDGEPGDLRFRIKVVKHRIFERRGDDLYTNVTVSLVEALVGFEMDITHLDGHKVHISRDKITRPGAKLWKKGEGLPNFDNNNIKGSLIITFDVDFPKEQLTEEAKEGIKQLLKQGPVQKVYNGLQGY

Variants of: B1
Conditions: with bip_mouse Hspa5, P20029
Chain of bip_mouse Hspa5, P20029 (P20029 whole entry): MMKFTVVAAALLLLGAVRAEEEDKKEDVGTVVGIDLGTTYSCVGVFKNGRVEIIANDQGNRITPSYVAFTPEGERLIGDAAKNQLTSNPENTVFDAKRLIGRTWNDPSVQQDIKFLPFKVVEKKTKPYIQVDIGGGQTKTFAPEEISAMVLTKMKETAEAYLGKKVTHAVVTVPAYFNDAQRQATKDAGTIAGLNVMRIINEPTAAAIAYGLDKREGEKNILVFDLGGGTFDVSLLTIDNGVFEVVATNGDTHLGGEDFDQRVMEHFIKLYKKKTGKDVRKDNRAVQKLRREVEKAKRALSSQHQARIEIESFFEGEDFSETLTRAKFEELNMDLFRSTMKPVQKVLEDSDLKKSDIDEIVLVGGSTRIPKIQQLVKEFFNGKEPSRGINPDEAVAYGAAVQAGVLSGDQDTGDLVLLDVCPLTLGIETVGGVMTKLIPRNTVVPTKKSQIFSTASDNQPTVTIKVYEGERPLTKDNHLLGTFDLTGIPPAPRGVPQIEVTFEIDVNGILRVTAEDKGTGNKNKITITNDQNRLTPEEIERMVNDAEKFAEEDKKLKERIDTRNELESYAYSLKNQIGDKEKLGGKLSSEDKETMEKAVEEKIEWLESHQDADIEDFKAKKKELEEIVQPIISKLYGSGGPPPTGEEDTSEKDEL

| effect of a mutation on the interaction | Variant |
| --- | --- |
| disrupting interaction | H53Q |
